For this assay, the target named is PTH receptor ("PTHIR"). The experiment in a line: cell-based or functional assay.
In turn, “PTH(1-84)-Fc with F34A, V35S (Fc fusion)” came in with a cAMP potency (EC50) of 0.28 nM.
For “PTH-66, PTH(1-74)-[F34A, V35S]-hFcLALA-deltaLys (Fc fusion)” the value was 0.24 nM; for “PTH-67, PTH(1-64)-[F34A, V35S]-hFcLALA-deltaLys (Fc fusion)”, 0.24 nM; for “PTH-68, PTH(1-54)-[F34A, V35S]-hFcLALA-deltaLys (Fc fusion)”, 0.21 nM.
